Assay results from paper PMC3866529.

Key:
Cys = details: cited from earlier work
Cys27 = experiment: chemical modification
Cys37 = experiment: chemical modification; details: Pre-incubation temperature not stated; the HED activity assay was run at 25°C; not stated (100 mM buffer); 100 mM sodium citrate or phosphate buffers; DTT-reduced WT protein, no ligand
Cys22 [1] = target: Cys22 (UniProt position 23, FIKPTCPYCRR); details: cited from earlier work
Cys22 [2] = target: Cys22 (UniProt position 23, FIKPTCPFSRK); details: cited from earlier work
Cys23 = experiment: chemical modification; details: Pre-incubation temperature not stated; the HED activity assay was run at 25°C; not stated (100 mM buffer); 100 mM sodium citrate or phosphate buffers; DTT-reduced WT protein, no ligand
Cys22 [3] = target: Cys22 (UniProt position 23, FIKPTCPFCRK); details: cited from earlier work
Cys31 = experiment: chemical modification; details: Pre-incubation temperature not stated; the HED activity assay was run at 25°C; not stated (100 mM buffer); 100 mM sodium citrate or phosphate buffers; DTT-reduced WT protein, no ligand
Cys22 [4] = target: Cys22 (UniProt position 23, FIKPTCPFARK); details: cited from earlier work

Substance: Glutaredoxin 1 (CrGrx1) (Chlamydomonas reinhardtii)
- pKa (Cys): 3.9 ± 0.1

Substance: Glutaredoxin S12 (PtGrxS12) (Populus sp. (poplar))
- pKa (Cys27; cited from earlier work): 3.9

Substance: Glutaredoxin C3 (PtGrxC3) (Populus sp. (poplar; 'Pt' prefix, species not spelled out in the article))
- pKa (Cys37): 4.6 ± 0.1

Substance: Glutaredoxin 1 (HsGrx1, thioltransferase) (Homo sapiens)
- pKa (Cys22 [1]): 3.6

Substance: Glutaredoxin 1 (ScGrx1) (Saccharomyces cerevisiae)
- pKa (Cys): 3.2 to 4.0 ± 0.2

Substance: Glutaredoxin (pig liver thioltransferase) C25S (Sus scrofa; C25S)
- pKa (Cys22 [2]): 4.9

Substance: Glutaredoxin C2 (PtGrxC2) (Populus sp. (poplar; 'Pt' prefix, species not spelled out in the article))
- pKa (Cys23): 5.0 ± 0.1

Substance: Glutaredoxin 2 (ScGrx2) (Saccharomyces cerevisiae)
- pKa (Cys): 3.1 to 3.5 ± 0.2

Substance: Glutaredoxin 2 (CrGrx2) (Chlamydomonas reinhardtii)
- pKa (Cys): 4.8 ± 0.1

Substance: Glutaredoxin 2 (HsGrx2) (Homo sapiens)
- pKa (Cys): 4.6

Substance: Glutaredoxin (pig liver thioltransferase) (Sus scrofa)
- pKa (Cys22 [3]): 3.8

Substance: Glutaredoxin C1 (PtGrxC1) (Populus sp. (poplar; 'Pt' prefix, species not spelled out in the article))
- pKa (Cys31): 5.3 ± 0.1

Substance: Glutaredoxin (pig liver thioltransferase) C25A (Sus scrofa; C25A)
- pKa (Cys22 [4]): 5.9

Substance: Glutaredoxin C4 (PtGrxC4) (Populus sp. (poplar; 'Pt' prefix, species not spelled out in the article))
- pKa (Cys27; Pre-incubation temperature not stated, the HED activity assay was run at 25°C, not stated (100 mM buffer), 100 mM sodium citrate or phosphate buffers, DTT-reduced WT protein, no ligand): 4.6 ± 0.1
